Experimental data taken from publication PMC5306358.

Molecular target: tissue factor (TF), endogenous on human cells (human (endogenous in HMVEC, HUVEC, HAEC, MDA-MB-231)) (UniProt P13726)
UniProt P13726, sequence (P13726 33-295): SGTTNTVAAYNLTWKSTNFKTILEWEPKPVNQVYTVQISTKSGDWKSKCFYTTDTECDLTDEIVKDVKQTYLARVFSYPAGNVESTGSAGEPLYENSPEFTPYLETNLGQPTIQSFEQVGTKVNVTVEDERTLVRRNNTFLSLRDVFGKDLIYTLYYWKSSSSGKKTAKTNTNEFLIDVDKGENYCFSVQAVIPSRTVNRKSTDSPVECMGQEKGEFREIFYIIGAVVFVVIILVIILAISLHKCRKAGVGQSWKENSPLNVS

With mfVII/NLS-SnCe6 conjugate (ligand) the clonogenic assay of angiogenic HMVEC after fVII-tPDT with fVII/NLS-SnCe6 (0.0, 0.5, 1 and 2 μM SnCe6, 635 nm laser light at 36 J/cm^2); EC50 of SnCe6 for killing was 31 nM.
